The Km is the substrate concentration at which the rate is half of its maximum.

We go through two proteins from publication PMC9474520, “Biochemical and structural insights of multifunctional flavin-dependent monooxygenase FlsO1-catalyzed unexpected xanthone formation” (Nature Communications, 2022).

Substrate in the data set: CC1=CC(=O)[C@@H]2c3cc4cccc(O)c4c(O)c3C(=O)C[C@]2(O)C1
Description: HPLC of dehydrorabelomycin formation. It counts as biochemical, Micromonospora rosaria. Conditions: 2 mM NADPH, 50 mM phosphate pH 7.0, 30 °C.

B1: FlsO1 (Micromonospora rosaria) (protein)
chain: MNTIDAEVIIVGAGPTGLMLAGELRLNNVSTIVLDRLAEPMQQSRALGFSARTIEEFDQRGLLARFGEVGTIPFGHFGGVPLDYRVIKGGSYGARGIPQSRTEGMLAQRAVELGAELRRGQEVVSIDDDGTGVAVVVRTADGEQTLRAKYLVGADGARSTVRKAAGIDFPGTDPTMEMWLADVAGCDLRLRFSGELVPGGMVMVLPLGPVAQRVVVFEHATGLRNSTEPPTFAEVADAFERLTGEDIRGGKPLWVSWFTDSSRQAAEYRRGRILLAGDAAHIHMPIGGQGMSAGIQDAVNLGWKLAAEIHGHAPEGLLDTYHTERHPVDGRVVMNTLAQRWLYLGGEAMQPLRELLGELVRYPDVQEHLVGMVTGLDIRYDVGAGEHPLLGRRIPNQELVGEFDGSGKSTTFEQLHRGRGVLFAFGDDTAGPQAATGWTDRVDVVRATPHTADPDDPFHGLDAVLVRPDGYVAWVAPAGAGAAGLDEALSRWFGPSR
notes: (His)6-tagged, pET28a (pCSG5205), E. coli BL21(DE3); Ni-NTA; homodimer; crystals from Q108G/R109G surface mutant
As for B1, where the note is “0.5 μM enzyme”, the Km came out at 253.4 µM.

B2: FlsO2 (Micromonospora rosaria) (protein)
chain: MDTDVIVVGAGPTGLMLAGELRLGGARVVLVERLAEPTGQSRGLGFTARAMETLDQRGLLPRFGELETSPRGHFGGVQFDYSVLPDAHFGARGVPQSQTEDVLEKWATETGVDIRRGWELRELTDDGSGVTIVADTPDGTRQLRAAYLVGCDGGQSTVRKLVGFEFEGTPATRGMYLADVVGCALRPRFLGEKLANGMVMAAPLAEGVDRIIVCEHGTPPTERERQVSFEEVAAAWERITGESISHGGSLWVSSFTDATRQATEYRRGRVLLAGDAAHIHLPAAGQGLSVGVQDAANLGWKLAAVVRGHAPEGLLDTYHDERHPVGARLLLNTRVQNAVFLGGEEAEPLRTLFTELISYDTVGRHLAGMVSGLEVRYDVGAGDHPLLGRRLPPRALHGAAGATTTTELLHPATGVLLDLTDDAGLRAVAAGYGDRVAVTVATSDAAEFAGVPALLVRPDGYVAWVGAEPDGLAAALRRWFGEPAPAGQ
notes: expressed from pCSG5102 (previously constructed), E. coli BL21(DE3); purified similarly to FlsO1
For B2, the Km (0.25 μM enzyme) was determined as 143.2 µM.
